In a protein production outcome set (Wang et al. 2014):

assay: label from the status in PepcDB records

For “MTIHDNTLFSADERSRFLSSYASLIRTLAPDRQLVKKVRSLLSRFTELGCFDRDKNGMHGLLRNMEVARIASCEIGLGIEAIGALLFYRPAMKGLTRPEEIAELMGEDVARLIDLLLKTSEIYMRNTAINTANFEHFLLSIAEDIRVVLLIIADRSYLLRQAKDMVCAEERTALAAEVSYLYAPLAHRLGLYAIKSEMEDLCLKYTDRQTFDFIKRKLGETKRSRDAYIEAFIAPLRRRLDEALPNIPYEMKGRTKSINSIRNKLRQQGIEFESIYDLFAIRIILDVPVKDEKAACWHVYSIITDMYQPNPQRMKDWISIPKSNGYESLHVTVMGPQNRWVEVQIRSRRMDEVAERGLAAHWKYKGIKSESGLDEFLTSVRETLEARDHSSDDSAETVKNFKMNLFTDEIYAFTPTGELIKLPQGASVLDFAFAIHSRIGCQAVGANVNGKNVPLKHKLENGDSVSIITSAQQTPKKDWLSYVVSSKARNKIKQQLRLQMESSIGVVKELLNRRLKNRKLPFEEAVFTRVVRRKGFKHLTDFYMEIAADRLDVQEVLELYSHELEEEQRRDAGSGAARRSADTFVAHPPKEEEIVKGGKSDVLVIDNNMTGVEYSFGKCCNPIYGDSVFGFVSNSGIKIHRTDCPNAPDMFSRYGYRIIEARWSGKGSTGYEATLHVIGQDNLAIVTNITSVINKEPGVSLRAYSINSKDNLFEGVFTVEVPDTSTLSILLRKIRATHGVKSAERH”, which protein production is on record?
Its protein production is “failed”.

For “MTIKIALLGFGTVAKGIPYLLKENQHKLLSLEGEDIVIDKVLVRDNESRQRFINQGFTYNFVTEINTILQDSQIDIVVELMGGIEPAKTYLSQALGFGKHIVTANKDLIALHGKELMDLADARGLALFYEGAVAGGIPILRTLSHSFASDKMTRLLGILNGTSNFMLTKMFEEGWSYEQALKKAQELGYAESDPTNDVEGIDTAYKATILSQFGFGMPIDFDDVNYKGISSIRSEDVEVAQEMGFAIKLVADLRETPTGISVDVSPTLISQKHPLAAVNHVMNAVFIESIGIGQSLFYGPGAGQNPTATSVLADIIDISRSIRSQIKIKPMNTYHCPCRLSMQSDIFNEYYLAISLRNAEDSDTLGRYFEQENIGLKNVIEKALGDKQQEIYVLTDEVSQEKITQFIEEFPESGVIQLINVFKVIGG”, which protein production is on record?
Its protein production is “failed”.

With “MTILENIRGPRDLKALSEAELGELSDEIRDFLVHAVARTGGHLGPNLGVVELTVALHRVFESPDDRILWDTGHQSYVHKLLTGRQDFSKLRSKGGLSGYPSREESAHDVIENSHASTVLGWADGLAKARQVQGERSHVVAVIGDGALTGGMAWEALNNIAAARDRPLIIVVNDNERSYAPTIGGLANHLATLRTTDGYERALAWGKDVLQRTPVVGHTVYEALHGAKKGFKDAFAPQGLFEDLGLKYLGPIDGHDIGAVESALRRAKRFHGPVLVHCLTEKGRGYEPALRDEEDHFHTVGVMDPLTCEPLGPAGGPSWTSVFGEEIVRIGEERADVVAITAAMLHPVGLAPFAERFPDRVWDVGIAEQHAAVSAAGLATGGLHPVVAVYATFLNRAFDQLLMDVALHRCGVTFVLDRAGVTGVDGASHNGMWDMSVLQVVPGLRIAAPRDADQLRTQLREAVAVDDAPTLLRFPKESVGPAVPAVDRIGGLDVLHTADRSEVLLVAVGVMAPVCLGAAELLEARGIGCTVVDPRWVKPVDPALAPLAARHRLVAVVEDNSRAAGVGSAVALALGDAEVDVPVRRFGIPEQFLAHAKRAEVLADIGLTPVDVAGRIAASLALAEPAGDRAGGPAVEQPGDGRMSGDGRIVMPAQGEN” as the sequence, how does the protein production read?
The protein production was “failed”.

Which protein production does the source give for “MTIMLTPMQTEEFRSYLTYTTKHYAEEKVKAGTWLPEDAQLLSKQVFTDLLPRGLETPHHHLWSLKLNEKDIVGWLWIHAEPEHPQQEAFIYDFGLYEPYRGKGYAKQALAALDQAARSMGIRKLSLHVFAHNQTARKLYEQTGFQETDVVMSKKL” here?
Its protein production is “not failed”.

Which protein production does the source give for “MTIPLIIGGVLLAILILLILVFITKYRTVGPDEALIVTGNWLGGGKNVVTTDDGKKIKIIRGGGTFVVPIMQRAEPLSLLNYKLEVGTRDTYTKQGVPVTVNGVSIIKVGSTIEEVSTAAEQYLGKETEELKVEAKEVLEGHLRAILSSMTVEDAYSNREQFAQKVHEVASTDLKKMGLRIVSFTIKEIMDKNGYLDALGQPQIATVKRDATIANAEREKEARIEKARAEKEAKEAEYQRDAQIAEAEKHKELKVQSYKREQEQARADADLSYELQQAKAQQGVTEEQMRVKIIEREKQIELEEKEIARREKQYDAEVKKKADADRYAVEQSAEAEKVKQIKKADADQYKIEAEARARAEEVRVEGLAKAEIEKAQGQAKAEVQKAQGTAEADVIRLKGLAEAEAKQKIAEAFELYGQAAIMDMVLKMLPSYAKEVASPLSNIDKITVVDTGGGGKNSGAGKVAGYATDLMATMQETLKASSGIDLKELLEGFAGKGAVQQLSSDKPVVSVVEDEKKEVEKDKELEHHHHHH” here?
The protein production was “failed”.

Which protein production does the source give for “MTIPTSYLNHTDAEAARKARATYRDGLVAPTSGIAPGFTQANMIVLPRDWAFDFLLYAQRNPKPCPVLDVSDPGSPTTLLAPGADLRTDLPLYRIWRDGKLAEETADATSAWAERDDLVAFLIGCSFTFETPMVEAGIEIRHMTDKSNVPMYLTNRPCRPAGRLKGNMVVSMRPIPASRVADAATISGRFPAVHGAPVHVGAPEQIGISDLSKPDFGDAVRIEPGEVPVFWACGVTPQAAVMASGVPFAITHAPGHMFITDIPDTAYHALEHHHHHH” here?
The protein production was “not failed”.

Which protein production does the source give for “MTIRISGKSISIGEALRSRVSERTEEVLRKYFDGNYSGHFTLSKDGFGFRTDCALHLDSGITLEAESNAADAYVSADQALVQIEKRLRRYKSRLKDRSSRKAHAEANALAELSTPVDAASYVIEAPGDEEHHEDAYNPVIIAEATTAMKRLSVSEAVVELDLTGAPVVVFLHGSSGRVNIIYRRADGNIGWIDPPVLNGAN” here?
The protein production was “failed”.

With “MTITNSKAEAWELIGNQFWTIGRVAARPSDRENDIFLENIVPGSTVAVIGASTRFLIEKALERGASVTVFDFSQRMCDDLAEALADRCVTIDLLDITAEIPKELAGHFDFVLNDRLINRFTTEEARRACLGMLSLVGSGTVRASVKLGFYDIDLKLIEYGEQSGTLAKFFDPSDKTFHFREAGDVLDRALVPHGLIDKPTLLEWYRRRGKETRFDDEDVRALLSHDVVNARGYVTLEKAVELPDAPNTMLYQFSRRAG” as the sequence, how does the protein production read?
The protein production was “not failed”.

With “MTIVWRDCFCVRSHSSNGLFMDVENNTAFWITGYQEARLGPVPEPTFPASETPYVIVRSRYSGISRGTESLVYNNQVPENEYQRMRAPFQEGEFPFPVKYGYASVGEVVDGPEALLGRNVFCLYPHQQRYAVPASAVLPLPAKVPAERAVLAANMETAVNGVWDGQPAVGDRIAVIGLGVVGLLVAWLVNRIPGVELIGVDTNEGRRSVAQALGVRFTTEPDIQNCDLVFHASGHPSGLAKALSLAGTDARVIELSWYGDTPVSVPLGHAFHPNRLTLKSSQVGQLSPERRPRWHHRRRLELALSMLSEPALDALISGESRFEQLPQVAGNILMPGADALCHRIVY” as the sequence, how does the protein production read?
Its protein production is “failed”.

For “MTKANWTLSDARDTYAIEHWSDGYFNIAPEGEVVVCPQRGSVEGGVSIAAIARGVRAEGLSLPVLMRFPHILHDRVRLLTSAFGKARAAYHYGAGYTPVYPIKVNQQRNVIENILRAGGVGLEAGSKSELLAILALAESGTIICNGYKDRAYIRLALIGSRLGLRVFIVVEKLSELELVVSESEALGIAPQLGVRIRLSSISAGKWQNSGGEKSKFGLHAGEILKFLKRLERAGGLGWVRLMHFHMGSQVANINDVKTALREASRYYAELRRLGAPVDHVDVGGGLGIDYEGTHSVSDCSINYSVDEYAHSIVRAFSELCAEQGLPQPDLITEAGRAMSAHHAVLVTNVVDIEAATYDASPVSASVAQPLKDLEDLLRRVDSESVLGIYHDAEFDLAETRTMYVQGKIGLDQLAEAERLHATLCREVQQRLDIRLRAHRAVLDELNERLADKLFCNFSVFQSIPDAWAIDQIFPVMPLQRLGEEPTRRAVIQDMTCDSDGRINAYIDRQSIENTLRMHAPAPGEPYLIGFFLVGAYQEILGDMHNLFGDTHSVDVELDGAGGYTFTHTRRGDGADDLLRYVHIDPDELERSYRKKLIEADIPMHQRKQYESELIAGLSNYTYLEELEHHHHHH”, which protein production is on record?
The protein production was “not failed”.

For “MTKHRWSPVSSPPSRKPENVQVINLLPVAAGIIAILLALSFFGQVGAALLAITLALILATALNPVARWLERWMPRPAAGALTVLLVVLALVLLGLVAVPPLVSQGSKLTSSLPTSIPELEAQINALIDRYPAINSVLTEASVHRLIQQAGSFAANAAKGLPNIVSTFVGGVFMGLVMLVMVVFVLSNPVPLVNGVLGAVPPRHRLPAARALAQILKQLGGWGRATVLVMLVTGSCTALGLMLLKVDNWLIFGILAALGELVPNIGPIVATIPSVLFAAADDPQKGLYVALFVLVFQQVSGFVLGPFLLGGAGKLHPLSVTVGVLLFGSVFGIVGAFLTVPFLIIIKAIYQEFYLQDAPDIPDAVAMALISGKVEEQLDREEEQREAIDGQLQAARDEELQRQLEEGDLDLAAVLEHPESEPGNETTVEHSQTVISPTAQNPEQK”, which protein production is on record?
The protein production was “failed”.

With “MTKIPMFELEEAIDRQPLTVAPTLPVAQVLAVMERQHSSYVLLMESNQTLVGIFTERDLVRLTAIGITITSTPIEEVATSTVTTIQESDIYDVIRTLNLFRQYNVRHLPVVNATHQLIGIMTYEGIRRLLKPIDLLRLWRVSEVMVKSIICADRYQSALSLAELMSDRLISCVVITEKDPSGFPKPIGLVTERDILHLQVQGADLSQTIAADFMGSPPVFIQASDTLWQANQYMRARKIRRLLVVDERNIMVGLLTQTSLIHMIDPVEATLTIETLQQMVGERTVALDAANEKLERKALERKRAKAALQQQIYRERLVNRTAQRIRESLQLDEILVTTVSEVRQFLKAERVLIYRFQPNQQGAIAAESTDSNQTLIQGNAELEAILQEIDPTFYSCDRIHSIPDLQAQGLELTNATLLKRLQLRASLVAPIFAQEILWGLLIVGQNSQPRRWEKLEIDLLKQLATQVGIAIQQARLYAQLAAANQQLLRLAQSDGLTGLANRRHFDQCLDIEWQRAIREQHPLGLILIDIDCFKQFNDTYGHQAGDDCLKAVATALTQVIARPADLVARYGGEEFVVILPNTNEQGILQIAESMRSAVQQLKIPHRSSSVCSSVSLSLGAVTWVPTPHKSPEALIGAADQALYQAKELGRNRVCLGGVRLLETT” as the sequence, how does the protein production read?
The protein production was “failed”.

For “MTKITVLSGKGGTGKTTVSVNMAKALSESYRVQLLDADVEEPNDHIFFNVDVSFEEPVHLMIPVVDNSVCIRCGECASTCQFGAISVFPSGTFVFESLCHGCGACSIMCPVNAISERPKEIGKIRFGTADGNISFGMGILNIGERTGVPVIRKLKKHIDEKADVVIVDAPPGTSCPVVESLRNTDFALLVTEPTAFGLHDLKLAVELTKEMGIPSGIVVNRYIPGNTIIEEFADEEGIPVLLKIPFKREIASLCAEGKLIVEAFQDMKKDFLELFEKIEVMVRLEHHHHHH”, which protein production is on record?
Its protein production is “not failed”.

For “MTKKILTTPIKDEDLADIKAGDIIYLNGHIVTCRDVAHRRLIEGGRELPVNVAGGAILHAGPIVRPIKGTEDKFEMVSVGPTTSMRMEKFEKEFIAKTGVKLIVGKGGMGKGTEEGCMEHKALHCVFPAGCAVVAAVCVEEIEDAQWRDLGMPETLWVCRVKEFGPLIVSIDTHGNNLFEQNKVIFNQRKEIVADEICKHVSFIK”, which protein production is on record?
Its protein production is “failed”.

With “MTKKIVLAGGTGFIGQYLQQRFEENGDEVVIISRRAPHVSWDDSEAVREALEGADMLVNLAGKSVNCRYNEQNKKAILQSRIDTTNILGEAVLACERPPKLWLNSSTATIYRHAEDRAMTEANGELGSGFSENVAKAWEEEFFSFQLPNTRQAALRISIVLGGDGGALTPYRYLTKFGLGGKQGSGKQMVSWIHVEDVFRVIRFIEEQEALEGVINCTSPQPVSNKVLTTAIRRAMNVKVGLPATAWMLEIGTFLLRTESELILKSRWVLPERLLQAGFTFQYETIDDALSEILVQSKSASHLLEHHHHHH” as the sequence, how does the protein production read?
Its protein production is “failed”.

Which protein production does the source give for “MTKKKAHKPGSATIALNKRARHEYFIEEEFEAGLALQGWEVKSLRAGKANISDSYVLLRDGEAFLFGANITPMAVASTHVVCDPTRTRKLLLNQRELDSLYGRVNREGYTVVALSLYWKNAWCKVKIGVAKGKKQHDKRSDIKEREWQVDKARIMKNAHR” here?
Its protein production is “not failed”.
